Experimental data from paper PMC3064986 (Biochemical and biophysical research communications, 2011).

B1: yeast antizyme (Saccharomyces cerevisiae), N-terminal 6XHis-tagged, full length (natural protein, UniProt Q02803 1-292, looked up)
chain: MYEVIQKRKTKIINVLQSPELMRLIEDPSNLGISLHFPVSSLLKSNKCTPMPKLSTYSLASGGFKDWCADIPLDVPPEIDIIDFYWDVILCMESQFILDYNVPSKNKGNNQKSVAKLLKNKLVNDMKTTLKRLIYNENTKQYKNNNSHDGYNWRKLGSQYFILYLPLFTQELIWCKLNENYFHVVLPSLLNSRNVHDNHSTYINKDWLLALLELTSNLNQNFKFEYMKLRLYILRDDLINNGLDLLKNLNWVGGKLIKNEDREVLLNSTDLATDSISHLLGDENFVILEFEC
B2: yeast ornithine decarboxylase (Saccharomyces cerevisiae SPE1) (enzyme, UniProt P08432 1-466, looked up)
chain: MSSTQVGNALSSSTTTLVDLSNSTVTQKKQYYKDGETLHNLLLELKNNQDLELLPHEQAHPKIFQALKARIGRINNETCDPGEENSFFICDLGEVKRLFNNWVKELPRIKPFYAVKCNPDTKVLSLLAELGVNFDCASKVEIDRVLSMNISPDRIVYANPCKVASFIRYAASKNVMKSTFDNVEELHKIKKFHPESQLLLRIATDDSTAQCRLSTKYGCEMENVDVLLKAIKELGLNLAGVSFHVGSGASDFTSLYKAVRDARTVFDKAANEYGLPPLKILDVGGGFQFESFKESTAVLRLALEEFFPVGCGVDIIAEPGRYFVATAFTLASHVIAKRKLSENEAMIYTNDGVYGNMNCILFDHQEPHPRTLYHNLEFHYDDFESTTAVLDSINKTRSEYPYKVSIWGPTCDGLDCIAKEYYMKHDVIVGDWFYFPALGAYTSSAATQFNGFEQTADIVYIDSELD

What was measured:
[1] = biological target: B2; experiment: SPR
[2] = biological target: B1; experiment: SEC-MALS

Kd [1]	kon [1]	stoichiometry N [2]	Binder
17.3 nM	31400 M⁻¹ s⁻¹	–	B1
–	–	1 ODC per AZ	B2
